Data from US20130109846A1 (published 2013).
Positions count from the first letter of the chain named.

B1: 1h-99 (other)
VH: EVQLLESGGGLVQPGGSLRLSCAASGFTFDSANMTWVRQAPGKGLEWVSWIDDTGTQTYYADSVKGRFTISRDNSKNTLYLQMNSLRAEDTAVYYCAKSPFGPLYGFDYWGQGTLVTVSS
B2: 1h-99-229 (other)
VH: B1 VH with D30A, S31R, A32T, T35S, V37A, D52E, Y59F, W110R
B3: 1h-99-217 (other)
VH: B1 VH with D30S, S31R, A32S, T35S, V37G, D52E, Y59F, W110R
B4: 1h-99-228 (other)
VH: B1 VH with D30H, S31R, T35S, D52E, Y59F, F107S, W110R
B5: 1h-99-2116 (other)
VH: B1 VH with D30K, S31D, A32K, T35S, D52E, D53A, T54S, T56V, Y59F, W110R
B6: 1h-99-236 (other)
VH: B1 VH with T35S, D52E, D53A, T54P, T56K, Y59F, W110R, Q112R
B7: 1h-99-230 (other)
VH: B1 VH with T35S, D52E, D53S, T54I, T56V, Y59F, W110R
B8: 1h-99-220 (other)
VH: B1 VH with D30Y, S31R, A32S, T35S, D52E, Y59F, W110R
B9: 1h-99-218 (other)
VH: B1 VH with S31K, A32S, T35S, V37A, D52E, Y59F, W110R
B10: 1h-99-227 (other)
VH: B1 VH with D30N, S31H, T35S, D52E, Y59F, S75Y, W110R
B11: 1h-99-203 (other)
VH: B1 VH with D30Y, S31K, T35S, V37A, D52E, Y59F, W110R
B12: 1h-99-226 (other)
VH: B1 VH with D30K, T35S, D52E, Y59F, W110R
B13: 1h-99-225 (other)
VH: B1 VH with D30R, S31L, A32Q, T35S, D52E, Y59F, W110R
B14: 1h-99-201 (other)
VH: B1 VH with D30H, S31R, A32W, T35S, V37A, D52E, Y59F, W110R
B15: 1h-99-221 (other)
VH: B1 VH with D30A, S31R, A32S, T35S, D52E, Y59F, W110R
B16: 1h-99-222 (other)
VH: B1 VH with D30Q, S31R, A32S, T35S, D52E, Y59F, W110R
B17: 1h-99-224 (other)
VH: B1 VH with D30S, S31H, A32N, T35S, D52E, Y59F, W110R
B18: 1h-99-1 (other)
VH: B1 VH with D52E, Y59F, K65R, S75F, W110R
B19: 1h-99-2112 (other)
VH: EVQLLESGGGLVQPGGSLRLSCAASGFTFKDKNMSWARQAPGKGLEWVSWIEAPGVQTFYADSVRGRFTISRDNSKNTLYLQMNSLRAEDTAVYYCARSPFGPLYGFDYRGQGTLVTVSS
B20: 1h-99-2115 (other)
VH: B19 VH with A37V
B21: 1h-99-2113 (other)
VH: B19 VH with P54S, R65K, R98K
B22: 1h-99-2114 (other)
VH: B19 VH with P54I, R65K, R98K
B23: 1h-29 (other)
VH: EVQLLESGGGLVQPGGSLRLSCAASGFTFEDYDMNWVRQAPGKGLEWVSHIDRGGTLTYYADSVKGRFTISRDNSKNTLYLQMNSLRAEDTAVYYCAKSTLMGFDYWGQGTLVTVSS
B24: 1h-18-1 (other)
VL: DIQMTQSPSSLSASVGDRVTITCRASQYIGTSLNWYQQKPGKAPKLLTYQASFLQSGVPSRFSGSGSGTDFTLTISSLQPEDFATYYCQQLALRPMTFGQGTKVEIKR
B25: 1h-18-3 (other)
VL: B24 VL with Q50R, F53L
B26: 1h-35 (other)
VL: B24 VL with T31S, S32A, N34S, T48I, Q50R, F53N, L93I, M96F
B27: 1h-34 (other)
VL: B24 VL with N34A, T48I, Q50H, A51S, F53G, S60L, L91T, M96F
B28: 1h-18-5 (other)
VL: B24 VL with F53L, L93M, R108W
B29: 1h-18-6 (other)
VL: B24 VL with T48I, F53L, S67Y
B30: 1h-239-9 (other)
VL: DIQMTQSPSSLSASVGDRVTITCRASQSIYPFLEWYQQKPGKAPKLLIYFTSRLQSGVPSRFSGSGSGTDFTLTISSLQPEDFATYYCLQNVTNPATFGQGTKVEIKR
B31: 1h-93 (other)
VH: EVQLLESGGGLVQPGGSLRLSCAASGFTFPLYEMAWVRQAPGKGLEWVSSIMSNGIRTYYADSVKGRFTISRDNSKNTLYLQMNSLRAEDTAVYYCAKRKSSSSRTVFDYWGQGTLVTVSS
B32: 1h-93-204 (other)
VH: B31 VH with P30Y, L31T, Y32A, K98R, K100E
B33: 1h-93-2 (other)
VH: B31 VH with K100E
B34: 1h-93-201 (other)
VH: B31 VH with P30S, L31V, Y32S, K98R, K100E
B35: 1h-93-1 (other)
VH: B31 VH with I56T, K100E
B36: 1h-30 (other)
VH: EVQLLESGGGLVQPGGSLRLSCAASGFTFAHYHMGWVRQAPGKGLEWVSWIPADGLRTYYADSVKGRFTISRDNSKNTLYLQMNSLRAEDTAVYYCAKYEGAFDYWGQGTLVTVSS
B37: 1h-31 (other)
VL: DIQMTQSPSSLSASVGDRVTITCRASQSIGYSLAWYQQKPGKAPKLLIYWVSSLQSGVPSRFSGSGSGTDFTLTISSLQPEDFATYYCQQTQRTPFTFGQGTKVEIKR
B38: 1h-32 (other)
VL: B37 VL with S28N, Y31H, S32G, S53L, Q92L, R93S, T94K
B39: 1h-33 (other)
VL: DIQMTQSPSSLSASVGDRVTITCRASSNIHNRLNWYQQKPGKAPKLLIYAASSLQSGVPSRFSGSGSGTDFTLTISSLQPEDFATYYCRQWIQPPWTFGQGTKVEIKR
B40: 1h-37 (other)
VH: EVQLLESGGGLVQPGGSLRLSCAASGFTFGTYKMVWVRQAPGKGLEWVSSIGPGGLDTYYADSVKGRFTISRDNSKNTLYLQMNSLRAEDTAVYYCAKSWMTLPITGFDYRGQGTLVTVSS

Target: human CD28 (human, UniProt P10747 19-220)
Assay: cell-based or functional assay

MLR assay (EC50)	Luciferase assay (EC50)	Binder
2200 nM	–	B1
24 nM	15 nM	B2
15 nM	12 nM	B3
46 nM	12 nM	B4
4 nM	5 nM	B5
14 nM	21 nM	B6
14 nM	9 nM	B7
12 nM	10 nM	B8
12 nM	10 nM	B9
33 nM	18 nM	B10
10 nM	8 nM	B11
23 nM	10 nM	B12
28 nM	14 nM	B13
18 nM	14 nM	B14
17 nM	12 nM	B15
28 nM	16 nM	B16
28 nM	15 nM	B17
19 nM	15 nM	B18
2 nM	3 nM	B19
12 nM	3 nM	B20

MLR assay (EC50)	Luciferase assay (EC50)	Binder
3 nM	5 nM	B21
2 nM	4 nM	B22
–	> 7000 nM	B23
–	5400 nM	B24
–	1000 nM	B25
2000 nM	1900 nM	B26
–	2900 nM	B27
–	> 7000 nM	B28
–	1400 nM	B29
–	27 nM	B30
3200 nM	2800 nM	B31
1200 nM	176 nM	B32
830 nM	383 nM	B33
18 nM	182 nM	B34
545 nM	493 nM	B35
–	1200 nM	B36
–	800 nM	B37
–	4500 nM	B38
–	1600 nM	B39
1900 nM	–	B40
